This note sets out measurements from the supplement of paper PMC7877785.

This data set is described as follows: self-splicing fitness, log relative to wild type (ln ratio); higher = more splicing; Tetrahymena group I intron in knt gene, E. coli kanamycin selection, DiMSum; sequences stand for … in CUCUCU…GGAGGGAAAAGUUAUCAGGCAUGCACCUGGUAGCUAGUCUUUAAACCAAUAGAUUGCAUCGGUUUAAAAGGCAAGACCGUCAAAUUGCGGGAAAGGGGUCAACAGCCGUUCAGUACCAAGUCUCAGGGGAAACUUUGAGAUGGCCUUGCAAAGGGUAUGGUAAUAAGCUGACGGACAUGGUCCUAACCACGCAGCCAAGUCCUAAGUCAACAGAUCUUCUGUUGAUAUGGAUGCAGUUCACAGACUAAAUGUCGGUCGGGGAAGAUGUAUUCUUCUCAUAAGAUAUAGUCGGACCUCUCCUUAAUGGGAGCUAGCGGAUGAAGUGAUGCAACACUGGAGCCGCUGGGAACUAAUUUGUAUGCGAAAGUAUAUUGAUUAGUUUUGGAGUACUCGUGGUCG
In outline:
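DiMSum derived fitness as the error-weighted combination of fold changes across replicates, kanamycin versus no kanamycin, normalised to wild type. E. coli BL21(DE3) held the library, which randomised all eight P1ex-region intron nucleotides within the knt kanamycin-resistance gene on pET-22b(+). Six replicate transformations grew overnight at 37°C or 30°C on LB agar with or without 25 μg/mL kanamycin, also containing 100 μg/mL carbenicillin, 50 μM IPTG and 0.2% rhamnose, and pooled colonies were amplicon-sequenced on an Illumina HiSeq 2500.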

± gives the uncertainty stated by the source.

On to UACUAGCAAUAUUACGGGUU, for which the “self-splicing fitness (ln)” value runs as follows: (30 °C) -2.34 ± 0.18; (37 °C) -1.78 ± 0.16.
On to UACUAGCAAUAUUACGGUAC, for which the “self-splicing fitness (ln)” value runs as follows: (30 °C) -3.01 ± 0.18; (37 °C) -2.53 ± 0.23.
As for UACUAGCAAUAUUACGGUGG, the “self-splicing fitness (ln)” value is -2.1 ± 0.09 (30 °C) and -1 ± 0.098 (37 °C).
UACUAGCAAUAUUACGUGCA: the “self-splicing fitness (ln)” value is -1.01 ± 0.073 (30 °C) and 0.166 ± 0.09 (37 °C).
For UACUAGCAAUAUUACGUGCC, in that order: -1.33 ± 0.14 and -2.6 ± 0.26.
For UACUAGCAAUAUUACGUGCU, in that order: -3.85 ± 0.32 and -3.06 ± 0.27.
UACUAGCAAUAUUACGUUCG: the “self-splicing fitness (ln)” value is, setting by setting: (30 °C) -0.992 ± 0.077; (37 °C) -0.484 ± 0.094.
As to UACUAGCAAUAUUACGUUCU, the “self-splicing fitness (ln)” value reads like this: (30 °C) -2.47 ± 0.25; (37 °C) -1.03 ± 0.19.
For UACUAGCAAUAUUACGUUUC, in that order: -4.15 ± 0.33 and -2.53 ± 0.23.
For the sequence UACUAGCAAUAUUACGUUUG, the “self-splicing fitness (ln)” value is, setting by setting: (30 °C) -3.28 ± 0.18; (37 °C) -2.21 ± 0.29.
For UAGAAGCAAUAUUACGAAGG, in that order: -2.9 ± 0.17 and -1.82 ± 0.39.
For UAGAAGCAAUAUUACGACGA, in that order: -0.144 ± 0.1 and -0.0918 ± 0.1.
Regarding UAGAAGCAAUAUUACGACUG, the “self-splicing fitness (ln)” value reads like this: (30 °C) -0.418 ± 0.083; (37 °C) -0.0265 ± 0.1.
Consider UAGAAGCAAUAUUACGCCUC, for which the “self-splicing fitness (ln)” value (30 °C) was -2.88 ± 0.5.
For UAGAAGCAAUAUUACGCGGG, the “self-splicing fitness (ln)” value reads like this: (30 °C) -2.4 ± 0.14; (37 °C) -1.1 ± 0.13.
On to UAGAAGCAAUAUUACGCGUU, for which the “self-splicing fitness (ln)” value was -2.89 ± 0.15 (30 °C) and -1.41 ± 0.13 (37 °C).
For UAGAAGCAAUAUUACGGGAA, in that order: -1.96 ± 0.25 and -2.3 ± 0.29.
For the sequence UAGAAGCAAUAUUACGGGAU, the “self-splicing fitness (ln)” value was -4.15 ± 0.23 (30 °C) and -2.36 ± 0.18 (37 °C).
UAGAAGCAAUAUUACGGGCC: the “self-splicing fitness (ln)” value (37 °C) was -1.9 ± 0.31.
Take UAGAAGCAAUAUUACGGGUG: the “self-splicing fitness (ln)” value runs as follows: (30 °C) -0.989 ± 0.057; (37 °C) -0.365 ± 0.078.
Regarding UAGAAGCAAUAUUACGGUCU, the “self-splicing fitness (ln)” value is -0.542 ± 0.11 (30 °C) and 0.318 ± 0.11 (37 °C).
On to UAGAAGCAAUAUUACGUAAU, for which the “self-splicing fitness (ln)” value was -3.43 ± 0.22 (30 °C) and -1.39 ± 0.18 (37 °C).
As to UAGAAGCAAUAUUACGUAGA, the “self-splicing fitness (ln)” value runs as follows: (30 °C) -2.4 ± 0.095; (37 °C) -1.79 ± 0.11.
Consider UAGAAGCAAUAUUACGUCUC, for which the “self-splicing fitness (ln)” value is -1.21 ± 0.11 (30 °C) and -0.794 ± 0.1 (37 °C).
For UAGAAGCAAUAUUACGUGCU, in that order: -2.8 ± 0.21 and -2.42 ± 0.24.
For UAGAAGCAAUAUUACGUUAC, in that order: -3.73 ± 0.32 and -2.79 ± 0.27.
For UAGAAGCAAUAUUACGUUGC, in that order: -4.3 ± 0.27 and -2.82 ± 0.24.
UAGCAGCAAUAUUACGAAAA: the “self-splicing fitness (ln)” value is -2.56 ± 0.25 (30 °C) and -1.27 ± 0.2 (37 °C).
For UAGCAGCAAUAUUACGAGAU, in that order: -3.24 ± 0.2 and -3.18 ± 0.28.
UAGCAGCAAUAUUACGAUUC: the “self-splicing fitness (ln)” value (30 °C) was -3.06 ± 0.14 and the “self-splicing fitness (ln)” value (37 °C) was -2.94 ± 0.15.
For the sequence UAGCAGCAAUAUUACGCAAA, the “self-splicing fitness (ln)” value (30 °C) was -1.89 ± 0.18 and the “self-splicing fitness (ln)” value (37 °C) is -1.76 ± 0.17.
For UAGCAGCAAUAUUACGCAAG, in that order: -3.04 ± 0.23 and -1.76 ± 0.21.
For UAGCAGCAAUAUUACGCACU, in that order: -0.419 ± 0.086 and 0.238 ± 0.1.
For UAGCAGCAAUAUUACGCAUC, in that order: -4.15 ± 0.47 and -3.39 ± 0.26.
Turning to UAGCAGCAAUAUUACGCCAC, the “self-splicing fitness (ln)” value is -3.82 ± 0.39 (30 °C) and -1.45 ± 0.3 (37 °C).
For UAGCAGCAAUAUUACGCCCU, in that order: -0.738 ± 0.087 and -0.863 ± 0.11.
For UAGCAGCAAUAUUACGCCUA, in that order: -0.551 ± 0.13 and 0.446 ± 0.15.
For UAGCAGCAAUAUUACGCGAU, in that order: -2.94 ± 0.2 and -3.07 ± 0.35.
In the case of UAGCAGCAAUAUUACGCGCA, the “self-splicing fitness (ln)” value is -0.588 ± 0.11 (30 °C) and -0.487 ± 0.095 (37 °C).
UAGCAGCAAUAUUACGCGGU: the “self-splicing fitness (ln)” value was -4.14 ± 0.22 (30 °C) and -2.49 ± 0.17 (37 °C).
As for UAGCAGCAAUAUUACGCGUG, the “self-splicing fitness (ln)” value (30 °C) was -1.5 ± 0.076 and the “self-splicing fitness (ln)” value (37 °C) is -0.257 ± 0.1.
Regarding UAGCAGCAAUAUUACGCGUU, the “self-splicing fitness (ln)” value was -2.72 ± 0.1 (30 °C) and -1.24 ± 0.11 (37 °C).
For UAGCAGCAAUAUUACGGAUG, in that order: -1.19 ± 0.073 and -0.912 ± 0.079.
For UAGCAGCAAUAUUACGGCUA, the “self-splicing fitness (ln)” value reads like this: (30 °C) -2.89 ± 0.39; (37 °C) -1.33 ± 0.28.
For UAGCAGCAAUAUUACGGGCU, in that order: -3.39 ± 0.15 and -1.08 ± 0.12.
On to UAGCAGCAAUAUUACGUCAU, for which the “self-splicing fitness (ln)” value is -3.68 ± 0.17 (30 °C) and -1.52 ± 0.13 (37 °C).
For UAGCAGCAAUAUUACGUGAA, in that order: -1.71 ± 0.16 and -0.671 ± 0.18.
For UAGCAGCAAUAUUACGUGAU, in that order: -3.42 ± 0.13 and -1.09 ± 0.11.
In the case of UAGCAGCAAUAUUACGUGUA, the “self-splicing fitness (ln)” value was -1.17 ± 0.062 (30 °C) and -0.62 ± 0.077 (37 °C).
For UAGCAGCAAUAUUACGUGUG, in that order: -1.63 ± 0.064 and -0.7 ± 0.08.
UAGCAGCAAUAUUACGUGUU: the “self-splicing fitness (ln)” value (30 °C) is -3.4 ± 0.1 and the “self-splicing fitness (ln)” value (37 °C) is -2.86 ± 0.15.
For UAGCAGCAAUAUUACGUUCG, in that order: -0.326 ± 0.069 and 0.165 ± 0.091.
For the sequence UAGGAGCAAUAUUACGACUA, the “self-splicing fitness (ln)” value reads like this: (30 °C) -0.46 ± 0.13; (37 °C) -1.53 ± 0.15.
Regarding UAGGAGCAAUAUUACGAGUC, the “self-splicing fitness (ln)” value by setting is: (30 °C) -3.68 ± 0.33; (37 °C) -2.78 ± 0.3.
In the case of UAGGAGCAAUAUUACGAUCU, the “self-splicing fitness (ln)” value (30 °C) was -3.09 ± 0.4.
As for UAGGAGCAAUAUUACGAUGC, the “self-splicing fitness (ln)” value is -1.78 ± 0.23 (30 °C) and -1.01 ± 0.17 (37 °C).
Consider UAGGAGCAAUAUUACGAUGU, for which the “self-splicing fitness (ln)” value (37 °C) was -1.79 ± 0.4.
UAGGAGCAAUAUUACGCCCG: the “self-splicing fitness (ln)” value is, setting by setting: (30 °C) -1.53 ± 0.19; (37 °C) -0.352 ± 0.17.
Turning to UAGGAGCAAUAUUACGGAAG, the “self-splicing fitness (ln)” value was -2.94 ± 0.18 (30 °C) and -1.51 ± 0.26 (37 °C).
For UAGGAGCAAUAUUACGGAUA, in that order: -2.09 ± 0.29 and -1.46 ± 0.23.
For UAGGAGCAAUAUUACGGAUC, in that order: -3.44 ± 0.41 and -0.998 ± 0.39.
UAGGAGCAAUAUUACGGCAC: the “self-splicing fitness (ln)” value was -2.4 ± 0.15 (30 °C) and -2.53 ± 0.26 (37 °C).
UAGGAGCAAUAUUACGGCCA: the “self-splicing fitness (ln)” value is, setting by setting: (30 °C) -2.27 ± 0.21; (37 °C) -1.7 ± 0.27.
On to UAGGAGCAAUAUUACGGCUA, for which the “self-splicing fitness (ln)” value by setting is: (30 °C) -0.122 ± 0.11; (37 °C) 0.147 ± 0.11.
For UAGGAGCAAUAUUACGGUAA, in that order: -3.41 ± 0.34 and -2.26 ± 0.31.
Consider UAGGAGCAAUAUUACGUAAU, for which, where the note is “30 °C”, the “self-splicing fitness (ln)” value is -3.15 ± 0.34.
UAGGAGCAAUAUUACGUACU: the “self-splicing fitness (ln)” value was -2.72 ± 0.31 (30 °C) and -1.73 ± 0.32 (37 °C).
For UAGGAGCAAUAUUACGUAUA, in that order: -2.34 ± 0.21 and -0.936 ± 0.17.
For UAGGAGCAAUAUUACGUCAC, in that order: -3.99 ± 0.16 and -3.35 ± 0.21.
For UAGGAGCAAUAUUACGUCAG, in that order: -4.59 ± 0.42 and -1.7 ± 0.26.
On to UAGGAGCAAUAUUACGUCCU, for which the “self-splicing fitness (ln)” value (30 °C) was -1.63 ± 0.18 and the “self-splicing fitness (ln)” value (37 °C) was -2.25 ± 0.26.
For UAGGAGCAAUAUUACGUCUA, in that order: -0.313 ± 0.11 and 0.198 ± 0.13.
For UAGGAGCAAUAUUACGUCUU, in that order: -3.16 ± 0.34 and -0.955 ± 0.23.
For UAGGAGCAAUAUUACGUUUC, in that order: -2.55 ± 0.29 and -2.68 ± 0.44.
In the case of UAGGAGCAAUAUUACGUUUU, the “self-splicing fitness (ln)” value (30 °C) was -1.88 ± 0.23 and the “self-splicing fitness (ln)” value (37 °C) was -1.89 ± 0.27.
For the sequence UAGUAGCAAUAUUACGAACC, the “self-splicing fitness (ln)” value (37 °C) was -2.97 ± 0.33.
As to UAGUAGCAAUAUUACGAAGC, the “self-splicing fitness (ln)” value (37 °C) is -1.73 ± 0.45.
